What was measured:
Assay in all cases: Solid phase binding assay, LRP2 CR89 mutant
[1] = target: T1, LRP2 CR89 V1047D R1088D (YDWD) (Homo sapiens, UniProt P98164, R1089D/V1048D)
T1 construct: two CR pairs from LRP2 (CR89, CR3435); made in house; host or cells: E. coli BL21(DE3) CodonPlus-RIPL, pET30(+)a
T1 sequence (P98164 1022-1105 V1048D/R1089D limits assumed): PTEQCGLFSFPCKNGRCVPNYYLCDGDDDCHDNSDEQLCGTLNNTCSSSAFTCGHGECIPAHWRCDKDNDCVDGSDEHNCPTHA
Excerpt: (§1) Each amplified fragment was sequentially digested with BamHI and HindIII and then ligated into similarly digested pET30(+)a. The resulting plasmids encode proteins consisting of N-terminal hexahistidine and S-peptides fused to the CR fragment. Ligation reactions were transformed into XL-Blue MRF′ (Stratagene) by electroporation and plasmids isolated from single colonies. Three mutations, […], V1047D and R1088D, were introduced into the LRP2 CR89 expression plasmid both singly and in combination using Stratagene QuikChange II XL reagents and the primers: […]
(§2) Purified, refolded CR protein (1 μg) was bound to Nunc Maxisorp™ 96-well plates in TBS pH 8 supplemented with 5 mM CaCl2 (TBSC) overnight at 4° C. Wells were washed with TBSC and then blocked with TBSC containing 2% bovine serum albumin (BSA). RAP ligands were then incubated with the immobilized receptor at a range of concentrations for 2 hours in the above blocking buffer supplemented with 0.05% Tween-20 at room temperature. Control wells contained no added ligand. As an additional control, to determine whether the absence of calcium affected binding, 10 mM EGTA was included in the incubation medium for some samples. Wells were washed with TBSTC and bound ligands detected with polyclonal anti-RAP (BP41/42, 1:1,000, BioMarin). Excess primary antibody was removed and wells washed before incubation with the secondary antibody, HRP-conjugated goat anti rabbit IgG (Bio-Rad). After washing, TMB substrate solutions (Bio-Rad) were added to detect HRP. Color development was stopped with 1N HCl. Absorption at 450 nm was measured with a microplate spectrophotometer (Molecular Devices). Data were plotted and Kd values derived by non-linear regression with the assumption of single-site binding (GraphPad Prism).
(§3) One premise of this work was that amino acids at A, C, A′ and C′ within the calcium-binding loops of a CR pair were key determinants of binding affinity for RAP and would be similarly important for binding of RAP variants. To test this idea, mutant LRP2 CR89 were prepared in which the native, non-canonical residues at these positions were sequentially substituted with the non-native, canonical residues. As defined above, the A, C, A′, C′ string for LRP2 CR89 is YVWR. Mutants included LRP2 CR89 Y1042W (WVWR), LRP2 CR89 V1047D (YDWR), LRP2 CR89 R1088D (YVWD), LRP2 CR89 V1047D R1088D (YDWD), LRP2 CR89 Y1042W V1047D R1088D (WDWD), LRP2 CR89 Y1042W V1047D (WDWR), LRP2 CR89 Y1042W R1088D (WVWD). Binding to both RAP d3 and MegaRAP1 d3 were measured for each LRP2 CR89 mutant by solid-phase assay. Only the YVWD mutant retained significant binding to MegaRAP1 d3, with an approximate 2-fold loss of affinity relative to LRP2 CR89 (FIG. 6 and Table 3). […] The A′ position in LRP2 CR89 is a tryptophan, the canonical residue for wild-type RAP d3 binding, and was not mutated in our studies.

[2] = target: T2, LRP2 CR89 Y1042W V1047D (WDWR) (Homo sapiens, UniProt P98164, V1048D/Y1043W)
T2 construct: two CR pairs from LRP2 (CR89, CR3435); made in house; host or cells: E. coli BL21(DE3) CodonPlus-RIPL, pET30(+)a
Excerpt: as §1, §2, §3

LRP2 CR89 Y1042W (WVWR) = target: T3, LRP2 CR89 Y1042W (WVWR) (Homo sapiens, UniProt P98164, Y1043W)
T3 construct: two CR pairs from LRP2 (CR89, CR3435); made in house; host or cells: E. coli BL21(DE3) CodonPlus-RIPL, pET30(+)a
T3 sequence (P98164 1025-1102 Y1043W): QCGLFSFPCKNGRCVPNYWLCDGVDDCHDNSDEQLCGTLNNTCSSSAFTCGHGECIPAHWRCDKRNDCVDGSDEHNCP
Excerpt: as §1, §2, §3

LRP2 CR89 V1047D (YDWR) = target: T4, LRP2 CR89 V1047D (YDWR) (Homo sapiens, UniProt P98164, V1048D)
T4 construct: two CR pairs from LRP2 (CR89, CR3435); made in house; host or cells: E. coli BL21(DE3) CodonPlus-RIPL, pET30(+)a
T4 sequence (P98164 1022-1105 V1048D limits assumed): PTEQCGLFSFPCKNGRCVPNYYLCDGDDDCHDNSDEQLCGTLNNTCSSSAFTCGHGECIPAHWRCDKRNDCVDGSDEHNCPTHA
Excerpt: as §1, §2, §3

LRP2 CR89 R1088D (YVWD) = target: T5, LRP2 CR89 R1088D (YVWD) (Homo sapiens, UniProt P98164, R1089D)
T5 construct: two CR pairs from LRP2 (CR89, CR3435); made in house; host or cells: E. coli BL21(DE3) CodonPlus-RIPL, pET30(+)a
Excerpt: as §1, §2, §3

T5 sequence (P98164 1022-1105 R1089D limits assumed): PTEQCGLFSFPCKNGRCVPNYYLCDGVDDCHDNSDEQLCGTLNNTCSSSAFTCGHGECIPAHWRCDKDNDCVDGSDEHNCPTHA
T2 sequence (P98164 1025-1102 Y1043W/V1048D): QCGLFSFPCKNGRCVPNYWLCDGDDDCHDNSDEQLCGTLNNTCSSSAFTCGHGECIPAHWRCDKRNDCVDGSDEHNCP

- binding (in words) [1]: failed to bind measurably
- binding (in words) [2]: failed to bind measurably
- binding (in words) (LRP2 CR89 Y1042W (WVWR)): prevent binding
- binding (in words) (LRP2 CR89 V1047D (YDWR)): failed to bind measurably
- loss of affinity relative to LRP2 CR89 (LRP2 CR89 R1088D (YVWD)): ~2 fold
B1: MegaRAP1 d3: d3 of RAP variant selected on LRP2 CR89: S213T, E217K, H249Y, E251K, K256A, K270E (SEQ ID NO: 93) (protein, listed as Homo sapiens)
chain: LDRLRRVSHQGYSTEAEFEEPRVIDLWDLEQSANLTDKELEAFREELKHFKAKIEAHNHYQKQLEIAHEDLRHAESVGDGERVSRSREKHALLEGRTKELGYTVKKHLQDLSGRISRAR
